Source: patent publication US20040137000A1 (UNITED BIOMEDICAL, published 2004)
Where two headings read alike, the source gives them in different places.

Tests used:
[1] = molecular target: T1, recombinant soluble CD4 (rsCD4) (UniProt P01730 26-396, limits assumed); assay: ELISA on rsCD4
T1 construct: Bought reagent coated on ELISA plates at 0.25 µg/ml; also called solid-phase rsCD4

[2] = molecular target: T2, CD4 on the surface of host T cells (HIV receptor complex involving CD4) (UniProt P01730 26-458, limits assumed); assay: cell-based or functional assay
[3] = molecular target: T2, CD4 on the surface of host T cells (HIV …); assay: cell-based or functional assay; remark: listed apart in the source

| Binder | fold reduction in binding compared to the chimeric antibody [1] | Antibody Conc (µg/ml) at 50% Inhibition; MT-2 microplaque neutralization, HIV-1 TH036 (PBL), clade E [2] | Antibody Conc (µg/ml) at 50% Inhibition; MT-2 microplaque neutralization, HIV-1 UG029 (PBL), clade A [2] | Antibody Conc (µg/ml) at 50% Inhibition; MT-2 microplaque neutralization, HIV-1 VL135 (PBL), clade B [2] | Antibody Conc (µg/ml) at 50% Inhibition; MT-2 microplaque neutralization, HIV-1 MN (H9 cells), clade B [3] | Antibody Conc (µg/ml) at 50% Inhibition; MT-2 microplaque neutralization, HIV-1 TH036 (PBL), clade E [3] | Antibody Conc (µg/ml) at 50% Inhibition; MT-2 microplaque neutralization, HIV-1 UG029 (PBL), clade A [3] | Antibody Conc (µg/ml) at 50% Inhibition; MT-2 microplaque neutralization, HIV-1 UG046 (PBL), clade D [3] | Antibody Conc (µg/ml) at 50% Inhibition; MT-2 microplaque neutralization, HIV-1 UG266 (PBL), clade D [3] | Antibody Conc (µg/ml) at 50% Inhibition; MT-2 microplaque neutralization, HIV-1 VL135 (PBL), clade B [3] | Antibody Conc (µg/ml) at 50% Inhibition; MT-2 microplaque neutralization, HIV-1 ZIM748 (PBL), clade C [3] |
| --- | --- | --- | --- | --- | --- | --- | --- | --- | --- | --- | --- |
| deimmunized B4 antibody DIVHv.3/VKv.2 produced by NS0 cells (antibody, human IgG1, V domains shown, Human IgG1 and human kappa constant regions; NS0 cells; also called DIVHv.3/V v.2; DIVH3/VK2) VH: QVQLVQSGAEVKKPGASVKVSCKASGYTFTDYVIHWVKQATGQGLEWIGEIYPGSGSAYSNAKFKDRVTITADKSTNTAYMELRSLRSDDTAVYFCARRGNGTGFAYWGQGTLVTVSS VL: DIVLTQSPASLAVSPGQRATITCKAGQSVDYDGDSYMNWYQQKPGQPPKLLIYVASNLESGIPSRFSGSGSGTDFTLTINPVEENDTATYYCQQSYKDPLTFGQGTKVEIK | < 3 fold | 0.7 µg/mL | 0.92 µg/mL | 0.35 µg/mL |  |  |  |  |  |  |  |
| deimmunized B4 antibody DIVHv.1/VKv.1 produced by NS0 cells (antibody, human IgG1, V domains shown) VH: QVQLVQSGPELKKPGASVKVSCKASGYTFTDYVIHWVKQATGQGLEWIGEIYPGSGSAYSNAKFKDRVTMTADKSSNTAYMELSSLTSDDTAVYFCARRGNGTGFAYWGQGTLVTVSS VL: DIVLTQSPASLAVSLGQRATITCKAGQSVDYDGDSYMNWYQQKPGQPPKLLIYVASNLESGIPARFSGSGSGTDFTLNIHPVEENDAATYYCQQSYKDPLTFGQGTKLEIK |  |  |  |  | > 100 µg/mL | 0.31 µg/mL | 0.47 µg/mL | 2.1 µg/mL | 0.82 µg/mL | 0.21 µg/mL | 0.45 µg/mL |
| deimmunized B4 antibody DIVHv.1/VKv.2 produced by NS0 cells (antibody, human IgG1, V domains shown) VH: QVQLVQSGPELKKPGASVKVSCKASGYTFTDYVIHWVKQATGQGLEWIGEIYPGSGSAYSNAKFKDRVTMTADKSSNTAYMELSSLTSDDTAVYFCARRGNGTGFAYWGQGTLVTVSS VL: DIVLTQSPASLAVSPGQRATITCKAGQSVDYDGDSYMNWYQQKPGQPPKLLIYVASNLESGIPSRFSGSGSGTDFTLTINPVEENDTATYYCQQSYKDPLTFGQGTKVEIK |  | 0.51 µg/mL | 0.73 µg/mL | 0.24 µg/mL |  |  |  |  |  |  |  |
| deimmunized B4 antibody DIVHv.1/VKv.3 produced by NS0 cells (antibody, human IgG1, V domains shown) VH: QVQLVQSGPELKKPGASVKVSCKASGYTFTDYVIHWVKQATGQGLEWIGEIYPGSGSAYSNAKFKDRVTMTADKSSNTAYMELSSLTSDDTAVYFCARRGNGTGFAYWGQGTLVTVSS VL: DIVLTQSPASLAVSPGQRATITCKAGQSVDYDGDSYMNWYQQKPGQPPKLLIYVASNLESGIPSRFSGSGSGTDFTLTINPVEENDTATYYCQQSYKDPLAFGPGTKVEIK |  | 0.77 µg/mL | 1 µg/mL | 0.39 µg/mL |  |  |  |  |  |  |  |
| deimmunized B4 antibody DIVHv.2/VKv.1 produced by NS0 cells (antibody, human IgG1, V domains shown, Human IgG1 and human kappa constant regions; NS0 cells; also called DIVHv.2/V v.1; DIVH2/VK1) VH: QVQLVQSGAEVKKPGASVKVSCKASGYTFTDYVIHWVRQATGQGLEWIGEIYPGSGSAYSNAKFKDRVTITADKSTNTAYMELRSLRSDDTAVYFCARRGNGTGFAYWGQGTLVTVSS VL: DIVLTQSPASLAVSLGQRATITCKAGQSVDYDGDSYMNWYQQKPGQPPKLLIYVASNLESGIPARFSGSGSGTDFTLNIHPVEENDAATYYCQQSYKDPLTFGQGTKLEIK | < 3 fold |  |  |  | > 100 µg/mL | 0.5 µg/mL | 0.79 µg/mL | 0.98 µg/mL | 1.2 µg/mL | 0.53 µg/mL | 0.63 µg/mL |
| deimmunized B4 antibody DIVHv.2/VKv.2 produced by NS0 cells (antibody, human IgG1, V domains shown, Human IgG1 and human kappa constant regions; NS0 cells; also called DIVHv.2/V v.2; DIVH2/VK2) VH: QVQLVQSGAEVKKPGASVKVSCKASGYTFTDYVIHWVRQATGQGLEWIGEIYPGSGSAYSNAKFKDRVTITADKSTNTAYMELRSLRSDDTAVYFCARRGNGTGFAYWGQGTLVTVSS VL: DIVLTQSPASLAVSPGQRATITCKAGQSVDYDGDSYMNWYQQKPGQPPKLLIYVASNLESGIPSRFSGSGSGTDFTLTINPVEENDTATYYCQQSYKDPLTFGQGTKVEIK | < 3 fold | 0.63 µg/mL | 0.73 µg/mL | 0.23 µg/mL |  |  |  |  |  |  |  |
| deimmunized B4 antibody DIVHv.2/VKv.3 produced by NS0 cells (antibody, human IgG1, V domains shown, Human IgG1 and human kappa constant regions; NS0 cells; also called DIVHv.2/V v.3; DIVH2/VK3) VH: QVQLVQSGAEVKKPGASVKVSCKASGYTFTDYVIHWVRQATGQGLEWIGEIYPGSGSAYSNAKFKDRVTITADKSTNTAYMELRSLRSDDTAVYFCARRGNGTGFAYWGQGTLVTVSS VL: DIVLTQSPASLAVSPGQRATITCKAGQSVDYDGDSYMNWYQQKPGQPPKLLIYVASNLESGIPSRFSGSGSGTDFTLTINPVEENDTATYYCQQSYKDPLAFGPGTKVEIK | 5 fold | 0.62 µg/mL | 1.2 µg/mL | 0.67 µg/mL |  |  |  |  |  |  |  |
| deimmunized B4 antibody DIVHv.3/VKv.1 produced by NS0 cells (antibody, human IgG1, V domains shown, Human IgG1 and human kappa constant regions; NS0 cells; also called DIVHv.3/V v.1; DIVH3/VK1) VH: QVQLVQSGAEVKKPGASVKVSCKASGYTFTDYVIHWVKQATGQGLEWIGEIYPGSGSAYSNAKFKDRVTITADKSTNTAYMELRSLRSDDTAVYFCARRGNGTGFAYWGQGTLVTVSS VL: DIVLTQSPASLAVSLGQRATITCKAGQSVDYDGDSYMNWYQQKPGQPPKLLIYVASNLESGIPARFSGSGSGTDFTLNIHPVEENDAATYYCQQSYKDPLTFGQGTKLEIK | < 3 fold |  |  |  | > 100 µg/mL | 0.58 µg/mL | 0.63 µg/mL | 0.99 µg/mL | 2.2 µg/mL | 0.26 µg/mL | 0.42 µg/mL |
| deimmunized B4 antibody DIVHv.3/VKv.3 produced by NS0 cells (antibody, human IgG1, V domains shown, Human IgG1 and human kappa constant regions; NS0 cells; also called DIVHv.3/V v.3; DIVH3/VK3) VH: QVQLVQSGAEVKKPGASVKVSCKASGYTFTDYVIHWVKQATGQGLEWIGEIYPGSGSAYSNAKFKDRVTITADKSTNTAYMELRSLRSDDTAVYFCARRGNGTGFAYWGQGTLVTVSS VL: DIVLTQSPASLAVSPGQRATITCKAGQSVDYDGDSYMNWYQQKPGQPPKLLIYVASNLESGIPSRFSGSGSGTDFTLTINPVEENDTATYYCQQSYKDPLAFGPGTKVEIK | 5 fold | 0.44 µg/mL | 1.1 µg/mL | 0.62 µg/mL |  |  |  |  |  |  |  |
| deimmunized B4 antibody DIVHv.4/VKv.1 produced by NS0 cells (antibody, human IgG1, V domains shown, Human IgG1 and human kappa constant regions; NS0 cells; also called DIVHv.4/V v.1) VH: QVQLVQSGAEVKKPGASVKVSCKASGYTFTDYVIHWVRQATGQGLEWIGEIYPGSGSAYSNSKFKDRVTITADKSTNTAYMELRSLRSDDTAVYFCARRGNGTGFAYWGQGTLVTVSS VL: DIVLTQSPASLAVSLGQRATITCKAGQSVDYDGDSYMNWYQQKPGQPPKLLIYVASNLESGIPARFSGSGSGTDFTLNIHPVEENDAATYYCQQSYKDPLTFGQGTKLEIK | < 3 fold |  |  |  | > 100 µg/mL | 0.35 µg/mL | 0.35 µg/mL | 1.1 µg/mL | 7 µg/mL | 0.26 µg/mL | 0.28 µg/mL |
| deimmunized B4 antibody DIVHv.4/VKv.2 produced by NS0 cells (antibody, human IgG1, V domains shown, Human IgG1 and human kappa constant regions; NS0 cells; also called DIVHv.4/V v.2) VH: QVQLVQSGAEVKKPGASVKVSCKASGYTFTDYVIHWVRQATGQGLEWIGEIYPGSGSAYSNSKFKDRVTITADKSTNTAYMELRSLRSDDTAVYFCARRGNGTGFAYWGQGTLVTVSS VL: DIVLTQSPASLAVSPGQRATITCKAGQSVDYDGDSYMNWYQQKPGQPPKLLIYVASNLESGIPSRFSGSGSGTDFTLTINPVEENDTATYYCQQSYKDPLTFGQGTKVEIK | < 3 fold | 0.32 µg/mL | 0.48 µg/mL | 0.3 µg/mL |  |  |  |  |  |  |  |
| murine monoclonal antibody B4 (antibody, V domains shown) VH: QVQLQQSGPELVKPGASVRMSCKASGYTFTDYVIHWVKQRTGQGLEWIGEIYPGSGSAYSNAKFKDKATLTADKSSNTAYMQLSSLTSEDSAVYFCARRGNGTGFAYWGQGTLVTVSA VL: DIVLTQSPASLAVSLGQRATISCKAGQSVDYDGDSYMNWYQQKPGQPPKLLIYVASNLESGIPARFSGSGSGTDFTLNIHPVEEEDAATYYCQQSYKDPLTFGAGTKLELK |  | 0.24 µg/mL | 0.28 µg/mL | 0.17 µg/mL | 14 µg/mL | 0.25 µg/mL | 0.44 µg/mL | 0.4 µg/mL | 0.4 µg/mL | 0.16 µg/mL | 0.21 µg/mL |
